The subject of one data set is db^Pas/db^Pas mice. In words: Postprandial plasma TG response after high-fat test meal in db^Pas/db^Pas mice. The data set is classed as in vivo, mouse. The note with it: 0.25 μg/animal i.p. The procedure:
FIGS. 1A and 1B show the effect of leptin on postprandial plasma TG response in db/db and db^Pas/db^Pas mice. Overnight-fasted db/db (A), db^Pas/db^Pas (B) mice were gavage-fed a high-fat test meal and immediately injected intravenously (db/db) or intraperitoneally (db^Pas/db^Pas) with saline (open symbols) or 50 μg mouse recombinant leptin (closed symbols). At the indicated times, blood was collected from the tail (A) or orbital (B) vein, plasma was separated by centrifugation, and plasma TG concentrations were determined using an enzymatic kit. Each point represents the mean±SEM (db/db: saline, n=4, leptin, n=3; db^Pas/db^Pas: saline, n=6, leptin, n=7). […] The plasma lipid response was then measured as in A and B. The area under the response curve (AUC) was then calculated using a triangulation method on Microsoft Excel between 0 and 4 hr (mg TG·h/mL). […]
(§1) FIGS. 7A and 7B show a comparison of the effect of human and mouse leptin on LSR activity in rat hepatocytes and on postprandial increase in plasma TG in db^Pas/db^Pas mice. […] The media were removed and were analyzed for TCA-soluble degradation products. […] The data represent the difference in TG concentrations measured at t=0 and the average of the concentrations at 3 and 4 hours. […]

For another data set, the system named is LSR. Description: LSR activity (oleate-induced 125I-LDL binding, uptake, degradation) in primary cultures of rat hepatocytes. In kind it is cell-based. The procedure: FIGS. 6A, 6B, and 6C show the effect of leptin on ^125I-LDL and ^125I-chylomicron binding to LSR in primary cultures of rat hepatocytes. For FIG. 6A, primary cultures of rat hepatocytes (48 hours after plating) were incubated at 37° C. for 30 min in the absence (□) or presence (▪) of 50 ng/mL leptin in Buffer A, followed by a 20 min incubation at 37° C. with 0.5 mM oleate. The cells were then washed with ice-cold PBS, precooled for 10 min, and then incubated for 1 h at 4° C. with increasing concentrations of ^125I-LDL in Buffer A. Cells were washed, were lysed in 0.1 N NaOH and were counted for radioactivity. Results are shown as the mean of duplicate determinations. […] The media was recovered and the radioactivity was measured. […] The amount of ^125I-chylomicrons bound was determined, and results are shown as means±SD of triplicate (irrelevant) or quadruplicate (anti-LSR) determinations.
as §1

B1: mouse leptin: recombinant mouse leptin, laboratory-prepared or commercial (Sigma, Calbiochem) (protein, UniProt P41160 22-167, looked up)
Leptin: VPIQKVQDDTKTLIKTIVTRINDISHTQSVSAKQRVTGLDFIPGLHPILSLSKMDQTLAVYQQVLTSLPSQNVLQIANDLENLRDLLHLLAFSKSCSLPQTSGLQKPESLDGVLEASLYSTEVVALSRLQGSLQDILQQLDVSPEC
Take B1: in the data set with db^Pas/db^Pas mice, the “postprandial plasma TG response” value is listed as “pronounced effect”. In addition, the “stimulation of LSR-mediated LDL degradation in primary cultures of rat hepatocytes” value in the data set with LSR (10 ng/mL recombinant leptin) is listed as “more efficient than human leptin”. For the same molecule, in the data set on LSR (rat hepatocytes, 30 min preincubation with 20 ng/mL at 37° C., binding at 4° C.), the “oleate-induced 125I-LDL binding to the cell surface” value is listed as “increased”.

For the origin of these results see US7470669B2, “Isolated polypeptide comprising a leptin fragment” (Serono Genetics Institute, S.A., priority 1999, dated 2008).
